# Measurements published in publication PMC3327807.
# B1: P. vivax adenosine deaminase (pvADA) (Plasmodium vivax Sal-1) (protein)
# chain: MNILQEPIDFLKKEELKNIDLSQMSKKERYKIWKRIPKCELHCHLDLCFSADFFVSCIRKYNLQPNLSDEEVLDYYLFAKGGKSLGEFVEKAIKVADIFHDYEVIEDLAKHAVFNKYKEGVVLMEFRYSPTFVAFKYNLDIELIHQAIVKGIKEVVELLDHKIHVALMCIGDTGHEAANIKASADFCLKHKADFVGFDHGGHEVDLKEYKEIFDYVRESGVPLSVHAGEDVTLPNLNTLYSAIQVLKVERIGHGIRVAESQELIDMVKEKNILLEVCPISNVLLKNAKSMDTHPIRQLYDAGVKVSVNSDDPGMFLTNINDDYEELYTHLNFTLEDFMKMNEWALEKSFMDSNIKDKIKNLYF
# Substrate: Nc1ncnc2c1ncn2[C@@H]1O[C@H](CO)[C@@H](O)[C@H]1O
# Test: UV spectrophotometric deamination kinetics
# Assay type: biochemical, Plasmodium vivax
# Conditions: zinc
protein,measurement,value
B1,Km,71 ± 16 µM
